From IntAct's records for PubMed 18617892

B1: Nuclear factor NF-kappa-B p100 subunit (Homo sapiens), Q00653 (parent)
chain: MESCYNPGLDGIIEYDDFKLNSSIVEPKEPAPETADGPYLVIVEQPKQRGFRFRYGCEGPSHGGLPGASSEKGRKTYPTVKICNYEGPAKIEVDLVTHSDPPRAHAHSLVGKQCSELGICAVSVGPKDMTAQFNNLGVLHVTKKNMMGTMIQKLQRQRLRSRPQGLTEAEQRELEQEAKELKKVMDLSIVRLRFSAFLRASDGSFSLPLKPVISQPIHDSKSPGASNLKISRMDKTAGSVRGGDEVYLLCDKVQKDDIEVRFYEDDENGWQAFGDFSPTDVHKQYAIVFRTPPYHKMKIERPVTVFLQLKRKRGGDVSDSKQFTYYPLVEDKEEVQRKRRKALPTFSQPFGGGSHMGGGSGGAAGGYGGAGGGGSLGFFPSSLAYSPYQSGAGPMGCYPGGGGGAQMAATVPSRDSGEEAAEPSAPSRTPQCEPQAPEMLQRAREYNARLFGLAQRSARALLDYGVTADARALLAGQRHLLTAQDENGDTPLHLAIIHGQTSVIEQIVYVIHHAQDLGVVNLTNHLHQTPLHLAVITGQTSVVSFLLRVGADPALLDRHGDSAMHLALRAGAGAPELLRALLQSGAPAVPQLLHMPDFEGLYPVHLAVRARSPECLDLLVDSGAEVEATERQGGRTALHLATEMEELGLVTHLVTKLRANVNARTFAGNTPLHLAAGLGYPTLTRLLLKAGADIHAENEEPLCPLPSPPTSDSDSDSEGPEKDTRSSFRGHTPLDLTCSTKVKTLLLNAAQNTMEPPLTPPSPAGPGLSLGDTALQNLEQLLDGPEAQGSWAELAERLGLRSLVDTYRQTTSPSGSLLRSYELAGGDLAGLLEALSDMGLEEGVRLLRGPETRDKLPSTAEVKEDSAYGSQSVEQEAEKLGPPPEPPGGLCHGHPQPQVH

Experiments:
[1] = variants of: B1; conditions: with fbw1a_human BTRC
[2] = variants of: B1; conditions: with ubc_human UBC

Variant | effect of a mutation on the interaction [1] | effect of a mutation on the interaction [2]
K298R | decreasing interaction | decreasing interaction
K90R | decreasing interaction | decreasing interaction

Next, values leading:

effect of a mutation on the interaction [1] | effect of a mutation on the interaction [2] | Variant
decreasing interaction | decreasing interaction | K689R
decreasing interaction | decreasing interaction | K863R
